From patent publication EP4556028A1

Target: spike protein of SARS-CoV-2 clinical isolate HH01 (Wuhan-like), on live virus (SARS-CoV-2 (Wuhan-like HH01)) (UniProt P0DTC2)
Assay: cell-based or functional assay

Substance	IC50, inhibition of SARS-CoV-2 HH01 replication on Calu-3 cells	IC90, inhibition of SARS-CoV-2 HH01 replication on Calu-3 cells [µg/mL]
recombinant minibinder LCB1 with N- and C-terminal Ser/Gly extensions and C-terminal Cys (designed binder)	10 to 100 nM	
virus-binding conjugate P: PLGA-PEG-Mal / PLGA (1:1) particle loaded with LCB1	4.86 µg/mL	4.99
virus-binding conjugate S: PLGA-only particle incubated with LCB1 (control, adsorbed minibinder)	1 to 10 µg/mL	
